The DeepSol protein solubility set

test: soluble on expression in E. coli; label from the status in PepcDB or PDB records

**Q.** With “MKNNKIYLLGACLLCAVTTFAQNVSLQPPPQQLIVQNKTIDLPAVYQLNGGEEANPHAVKVLKELLSGKQSSKKGMLISIGEKGDKSVRKYSRQIPDHKEGYYLSVNEKEIVLAGNDERGTYYALQTFAQLLKDGKLPEVEIKDYPSVRYRGVVEGFYGTPWSHQARLSQLKFYGKNKMNTYIYGPKDDPYHSAPNWRLPYPDKEAAQLQELVAVANENEVDFVWAIHPGQDIKWNKEDRDLLLAKFEKMYQLGVRSFAVFFDNISGEGTNPQKQAELLNYIDEKFAQVKPDINQLVMCPTEYNKSWSNPNGNYLTTLGDKLNPSIQIMWTGDRVISDITRDGISWINERIKRPAYIWWNFPVSDYVRDHLLLGPVYGNDTTIAKEMSGFVTNPMEHAESSKIAIYSVASYAWNPAKYDTWQTWKDAIRTILPSAAEELECFAMHNSDLGPNGHGYRREESMDIQPAAERFLKAFKEGKNYDKADFETLQYTFERMKESADILLMNTENKPLIVEITPWVHQFKLTAEMGEEVLKMVEGRNESYFLRKYNHVKALQQQMFYIDQTSNQNPYQPGVKTATRVIKPLIDRTFATVVKFFNQKFNAHLDATTDYMPHKMISNVEQIKNLPLQVKANRVLISPANEVVKWAAGNSVEIELDAIYPGENIQINFGKDAPCTWGRLEISTDGKEWKTVDLKQKESRLSAGLQKAPVKFVRFTNVSDEEQQVYLRQFVLTIEKK” as the sequence, how does the “soluble on expression in E. coli” value read?
**A.** Its value is “soluble”.

**Q.** For “MSKFNRIHLVVLDSVGIGAAPDADKFFNAGVADTDSDTLGHISEAAGLSVPNMAKIGLGNISRPIPLKTVPTEDNPTGYVTKLEEVSLGKDTMTGHWEIMGLNITEPFDTFWNGFPEEILTKIEEFSGRKIIREANKPYSGTAVIDDFGPRQMETGELIVYTSADPVLQIAAHEDIIPVEELYKICEYARSITLERPALLGRIIARPYVGDPGNFTRTANRHDYAVSPFQDTVLNKLADAGVPTYAVGKINDIFNGSGITNDMGHNKSNSHGIDTLIKTLQLPEFTKGFSFTNLVDFDANFGHRRDPEGYRDCLHEFDNRLPEIIANMKEDDLLLITADHGNDPTYAGTDHTREYIPLLAYSVSFTGNGLIPQGHFADISATVAENFGVDTAMIGESFLSHLK”, which “soluble on expression in E. coli” value is on record?
**A.** The value was “not soluble”.

**Q.** With “MLKQSLATLLLCSTLSPLAVVLPTLAGPGDGGMGWGAKVENLNLTPEQRQNLQAIRQRYQSQIEETRTQLRTAKDELRRLMASNASDEQIRAKHAQVQQLQQKLATLRFESMLATRKILTPEQRQALAERMQNRQGQRRLERLEHHHHHH” as the sequence, how does the “soluble on expression in E. coli” value read?
**A.** The value was “soluble”.

**Q.** With “MGSDKIHHHHHHMKRIRNISVVGMGAVGCAYGRKLYKLNPNNFKIIADDKRKEKLTKNGFLINGEKYDFKCVSPNENLGKDDLIIIAVKYNQLEEAIEEIRNYVGENTIILSFLNGIKSEEEIGKVYGMDKILYSYCVLESTRKGSEVYVSDGYKIVFGQKESDNKYEKIKAVRELFDDAEIDYEIPVDIIHSMWSKFMFNVGINPVSAILKANYGMLQKNKYARETMVSAMMEVINISQKASVNLKIEEINHWLAVLDECELHGKTSMCQDILMGRKTEIDMLSGEVCALGEKYGVDTPVNRTLFNMVKSIE” as the sequence, how does the “soluble on expression in E. coli” value read?
**A.** The value was “not soluble”.

**Q.** With “MGSDKIHHHHHHMPAYKVLQKGKTGDLLNVKHLYIKDIQSGEKVQDSFLVTEKNVAYSQKGAPYLNLRLKDKTGQVDGKIWDNALEWDKRFRKGDVVQVNARAVSFRNSLQLSILSLNTLDDSEVILNDYVPTTRMNVEVMFSELQSIIDRIDTPPLKKLLKSFFDDREIAERFKRAPAAKGFHHIYLGGLLEHTHSVTRLLSQIASHYPGVNRDLLLTGGILHDIGKINEFSYDRLVEYSDEGRLIGHIIIGVEMIDEKITAIPDFPAYLAMELRHLILSHHGILEYGSPKRPKTLEALMVHYVDDLDAKVNAFQEYLNDFRDEDTGWTPFHRFLERYLYRGRVQEITAEEPISPKEF” as the sequence, how does the “soluble on expression in E. coli” value read?
**A.** Its value is “not soluble”.

**Q.** Which “soluble on expression in E. coli” value does the source give for “MAHHHHHHMKKHKVPCKKFYRQRAHCNPLSDSYIRYPINCSYVDWRVHYPHLAAHGSDAQAEPINSVEATKHITNTEVERPPDEDPPTLQLNTNKYPIDYNQGPPKCAPHAEVTILDIGCGYGGLLFELSKTFPNKLILGMEIRDKITNYVGEKIHSYRKNYPPQYKNISVVRTNAMKFLPNYIKKNQIEKLFFCFPDPHFKKQNWRRRTITIESLSLYYYLLKRDGLIYFITDVYTLFLWVRFCFSKYPGFRLLSPEECQGDICVRLIHHSSEESKRVSKNKQAMYFCVARKE” here?
**A.** The value was “not soluble”.
